Measurements published in article PMC7170535, “Inter-α-inhibitor heavy chain-1 has an integrin-like 3D structure mediating immune regulatory activities and matrix stabilization during ovulation” (The Journal of Biological Chemistry, 2020).
Changes are numbered by the printed parent chain.

T1: recombinant inter-α-inhibitor heavy chain 1 (rHC1), D298A MIDAS mutant (human, UniProt P19827 35-672, D298A)
T1 construct: source: expressed and purified as described previously (58)
T1 sequence (looked up): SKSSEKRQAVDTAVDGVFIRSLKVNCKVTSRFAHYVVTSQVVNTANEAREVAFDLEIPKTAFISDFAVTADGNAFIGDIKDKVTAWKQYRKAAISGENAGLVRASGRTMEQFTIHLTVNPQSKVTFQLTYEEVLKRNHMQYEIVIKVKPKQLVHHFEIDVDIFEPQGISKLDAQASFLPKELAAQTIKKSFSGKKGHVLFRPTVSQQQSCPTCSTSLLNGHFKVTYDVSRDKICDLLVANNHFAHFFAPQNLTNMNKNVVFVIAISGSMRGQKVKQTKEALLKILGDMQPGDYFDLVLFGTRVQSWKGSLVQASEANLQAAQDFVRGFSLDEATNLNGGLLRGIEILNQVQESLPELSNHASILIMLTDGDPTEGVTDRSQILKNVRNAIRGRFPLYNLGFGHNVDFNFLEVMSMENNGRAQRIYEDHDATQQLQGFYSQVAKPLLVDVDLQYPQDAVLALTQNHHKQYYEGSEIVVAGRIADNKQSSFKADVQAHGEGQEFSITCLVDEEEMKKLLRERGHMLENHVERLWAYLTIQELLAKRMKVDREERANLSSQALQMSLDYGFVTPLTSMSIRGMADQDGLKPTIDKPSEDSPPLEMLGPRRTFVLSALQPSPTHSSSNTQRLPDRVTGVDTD

B1: TGFβ3-LAP, small latent complex of TGFβ3 (complex)
chain 1: LSTCTTLDFGHIKKKRVEAIRGQILSKLRLTSPPEPTVMTHVPYQVLALYNSTRELLEEMHGEREEGCTQENTESEYYAKEIHKFDMIQGLAEHNELAVCPKGITSKVFRFNVSSVEKNRTNLFRAEFRVLRVPNPSSKRNEQRIELFQILRPDEHIAKQRYIGGKNLPTRGTAEWLSFDVTDTVREWLLRRESNLGLEISIHCPCHTFQPNGDILENIHEVMEIKFKGVDNEDDHGRGDLGRLKKQKDHHNPHLILMMIPPHRLDNPGQGGQRKKR
chain 2: ALDTNYCFRNLEENCCVRPLYIDFRQDLGWKWVHEPKGYYANFCSGPCPYLRSADTTHSTVLGLYNTLNPEASASPCCVPQDLEPLTILYYVGRTPKVEQLSNMVVKSCKCS
B2: fibronectin type III repeats 13 and 14 (cFN13–14) (domain or fragment, human, UniProt P02751-1 1812-1991, looked up)
chain: ENVSPPRRARVTDATETTITISWRTKTETITGFQVDAVPANGQTPIQRTIKPDVRSYTITGLQPGTDYKIYLYTLNDNARSSPVVIDASTAIDAPSNLRFLATTPNSLLVSWQPPRARITGYIIKYEKPGSPPREVVPRPRPGVTEATITGLEPGTEYTIYVIALKNNQKSEPLIGRKKT
notes: Fibronectin, human, amino acid residues 1812-1991 (type III repeats 13 and 14); Mass spectrometry matched the construct with the N-terminal methionine removed; the monomeric protein was separated from dimeric cFN13–14 on heparin; source: E. coli BL21(DE3) pLysS, purified (nickel Sepharose, HisTrap HP, HiTrap heparin HP; monomeric form)
B3: recombinant inter-α-inhibitor heavy chain 1 (rHC1), wild type (natural protein, human, UniProt P19827 35-672, looked up)
chain: T1 sequence (looked up) with A264D
notes: Monomer in EDTA, monomer-dimer equilibrium in Mg2+ or Mn2+; also called rHC1 (WT); WT rHC1; source: expressed and purified as described previously (58)
B4: TGFβ2-LAP, small latent complex of TGFβ2 (complex)
chain 1: LSTCSTLDMDQFMRKRIEAIRGQILSKLKLTSPPEDYPEPEEVPPEVISIYNSTRDLLQEKASRRAAACERERSDEEYYAKEVYKIDMPPFFPSENAIPPTFYRPYFRIVRFDVSAMEKNASNLVKAEFRVFRLQNPKARVPEQRIELYQILKSKDLTSPTQRYIDSKVVKTRAEGEWLSFDVTDAVHEWLHHKDRNLGFKISLHCPCCTFVPSNNYIIPNKSEELEARFAGIDGTSTYTSGDQKTIKSTRKKNSGKTPHLLLMLLPSYRLESQQTNRRKKR
chain 2: ALDAAYCFRNVQDNCCLRPLYIDFKRDLGWKWIHEPKGYNANFCAGACPYLWSSDTQHSRVLSLYNTINPEASASPCCVSQDLEPLTILYYIGKTPKIEQLSNMIVKSCKCS
B5: recombinant inter-α-inhibitor heavy chain 1 (rHC1), ΔvWFA mutant lacking residues 288-478 (natural protein, human, UniProt P19827 35-672, looked up)
chain: SKSSEKRQAVDTAVDGVFIRSLKVNCKVTSRFAHYVVTSQVVNTANEAREVAFDLEIPKTAFISDFAVTADGNAFIGDIKDKVTAWKQYRKAAISGENAGLVRASGRTMEQFTIHLTVNPQSKVTFQLTYEEVLKRNHMQYEIVIKVKPKQLVHHFEIDVDIFEPQGISKLDAQASFLPKELAAQTIKKSFSGKKGHVLFRPTVSQQQSCPTCSTSLLNGHFKVTYDVSRDKICDLLVANNHFAHFFAPQNLTLLVDVDLQYPQDAVLALTQNHHKQYYEGSEIVVAGRIADNKQSSFKADVQAHGEGQEFSITCLVDEEEMKKLLRERGHMLENHVERLWAYLTIQELLAKRMKVDREERANLSSQALQMSLDYGFVTPLTSMSIRGMADQDGLKPTIDKPSEDSPPLEMLGPRRTFVLSALQPSPTHSSSNTQRLPDRVTGVDTD
notes: source: expressed and purified as described previously (58)
B6: vitronectin (natural protein, UniProt P04004 20-478, looked up)
chain: DQESCKGRCTEGFNVDKKCQCDELCSYYQSCCTDYTAECKPQVTRGDVFTMPEDEYTVYDDGEEKNNATVHEQVGGPSLTSDLQAQSKGNPEQTPVLKPEEEAPAPEVGASKPEGIDSRPETLHPGRPQPPAEEELCSGKPFDAFTDLKNGSLFAFRGQYCYELDEKAVRPGYPKLIRDVWGIEGPIDAAFTRINCQGKTYLFKGSQYWRFEDGVLDPDYPRNISDGFDGIPDNVDAALALPAHSYSGRERVYFFKGKQYWEYQFQHQPSQEECEGSSLSAVFEHFAMMQRDSWEDIFELLFWGRTSAGTRQPQFISRDWHGVPGQVDAAMAGRIYISGMAPRPSLAKKQRFRHRNRKGYRSQRGHSRGRNQNSRRPSRATWLSLFSSEESNLGANNYDDYRMDWLVPATCEPIQSVFFFSGDKYYRVNLRTRRVDTVDPPYPRSIAQYWLGCPAPGHL
notes: Vitronectin; source: bought: PeproTech

Experiments:
[1] = molecular target: B3; assay: SPR; 1,500 RU rHC1 proteins immobilised on a C1 chip by amide cross-linking; ligand as analyte; HEPES-buffered saline pH 7.5, 0.05% Tween 20, 2 mM Mg2+, 2 mM Mn2+; 50 μl/min; multicycle kinetics, 1:1 Langmuir; settings: both partners purified
[2] = molecular target: T1, recombinant inter-α-inhibitor heavy …; assay: as above; settings: both partners purified
[3] = molecular target: B3; assay: SPR; 1,000 RU rHC1 proteins immobilised on a C1 chip; cFN13–14 at 7.5-120 nM as analyte; HEPES-buffered saline pH 7.4, 0.05% Tween 20, no added metal ions or EDTA; 30 μl/min; single cycle kinetics, 1:1 Langmuir; settings: both partners purified
[4] = molecular target: T1, recombinant inter-α-inhibitor heavy …; assay: as above; settings: both partners purified
[5] = molecular target: B5; assay: as above; settings: both partners purified
[6] = molecular target: the molecule itself; assay: SAXS; rHC1 proteins at 1.25, 2.5 and 5.0 mg/ml in HEPES-buffered saline pH 7.5 with 5 mM MgCl2
[7] = molecular target: the molecule itself; assay: AUC; equilibrium AUC; rHC1 at 4, 11 and 22 μM with 0.1, 0.5, 1 or 5 mM MgCl2; 20 °C; global fit to a monomer–dimer model; dimer to monomers
vitronectin = molecular target: B6; assay: SPR; 1,500 RU rHC1 proteins immobilised on a C1 chip by amide cross-linking; ligand as analyte; HEPES-buffered saline pH 7.5, 0.05% Tween 20, 10 mM EDTA; 50 μl/min; multicycle kinetics, 1:1 Langmuir; settings: both partners purified
[8] = molecular target: B3; assay: as above; settings: both partners purified
[9] = molecular target: T1, recombinant inter-α-inhibitor heavy …; assay: as above; settings: both partners purified

Binder: B1
Kd [1]: 9.9 nM | Kd [2]: 3.1 nM

Binder: B2
Kd [3]: 14 nM | Kd [4]: 15.7 nM | Kd [5]: 16.3 nM

Binder: B3
stoichiometry N [6]: 2 | Kd [7]: 35300 nM

Binder: B4
Kd [1]: 8.8 nM | Kd [2]: 12.9 nM

Binder: B5
Kd (vitronectin): 0.097 nM

Binder: B6
Kd [8]: 0.192 nM | Kd [9]: 0.138 nM | Kd [1]: 0.118 nM | Kd [2]: 0.096 nM
